Laboratory results: PMC5988292 (2018)

B1: PH domain from LARG (domain or fragment)
chain: KMIHEGPLVWKVNRDKTIDLYTLLLEDILVLLQKQDDRLVLRCHSKILASTADSKHTFSPVIKLSTVLVRQVATDNKALFVISMSDNGAQIYELVAQTVSEKTVWQDLICRMAA
B2: PH domain from p190RhoGEF (domain or fragment)
chain: TLLYDGLVYWKTATGRFKDILALLLTDVLLFLQEKDQKYIFAAVDQKPSVISLQKLIAREVANEERGMFLISASSAGPEMYEIHTNSKEERNNWMRRIQQAVE
B3: PRG-PH (non-fluorescent PH domain of PDZRhoGEF) (domain or fragment)
chain: VKQTENRHRLEGYQKRLDATALERASNPLAAEFKSLDLTTRKMIHEGPLTWRISKDKTLDLHVLLLEDLLVLLQKQDEKLLLKCHSKTAVGSSDSKQTFSPVLKLNAVLIRSVATDKRAFFIICTSKLGPPQIYELVALTSSDKNTWMELLEEAVRNATRHP
B4: p115-PH (PH domain of p115RhoGEF) (domain or fragment)
chain: KLVHEGPLTWRVTKDKAVEVHVLLLDDLLLLLQRQDERLLLKSHSRTLTPTPDGKTMLRPVLRLTSAMTREVATDHKAFYVLFTWDQEAQIYELVAQTVSERKNWCALITETAG

Target: YFP-RhoA·GTPγS (UniProt P61586 1-193)
Assay: FRET; competition with CFP-PRG-PH

Sequence of YFP-RhoA·GTPγS (P61586 whole entry): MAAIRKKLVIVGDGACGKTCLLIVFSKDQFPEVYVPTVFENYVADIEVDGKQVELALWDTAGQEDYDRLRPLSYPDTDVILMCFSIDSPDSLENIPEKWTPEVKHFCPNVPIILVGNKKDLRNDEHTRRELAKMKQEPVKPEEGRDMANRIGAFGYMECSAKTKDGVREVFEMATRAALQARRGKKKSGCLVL

Binder | IC50 [µM]
B1 | 10.5
B2 | 7.2
B3 | 3.4
B4 | 170
